Source: publication PMC3564804, “A Visual Dual-Aptamer Logic Gate for Sensitive Discrimination of Prion Diseases-Associated Isoform with Reusable Magnetic Microparticles and Fluorescence Quantum Dots”

Target: PrPC, native state (recombinant human prion protein) (human, UniProt P04156 23-231)

**Q.** How did the binding signal turn out when CTTACGGTGGGGCAATT (ssDNA, 5'-NH2) [Apt1] was run?
**A.** The binding signal was 2.41 fluorescence ratio.

**Q.** For GTTTTGTTACAGTTCGTTTCTTTTCCCTGTCTTGTTTTGTTGTCT (ssDNA, 5'-biotin) [Apt2], which binding signal is on record?
**A.** Its binding signal is 2.41 fluorescence ratio.
